Reference: US20180346526

Target: T1, YydF18-49, truncated form of YydF with residues 18 to 49
T1 chain: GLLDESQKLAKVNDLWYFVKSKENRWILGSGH

B1: YydG C223A mutant (protein)
chain: MYNKTVSINLDSRCNASCDHCCFSSSPTSTTRMEKEYIRELVTEFAKNKTIQVISFTGGEVFLDYKFLKELMEIIKPYEKQITLISNGFWGLSKKKVQEYFHDMNSLNVIALTISYDEYHAPFVKSSSIKNILEHSRKYPDIDISLNMAVTKDKMSNHILEELGDSILGVKITKFPMISVGAAKTRIKQENIHKFYSLEDEDSLHCPGYDIVYHHDGEIYPCASPAIFETKITLREEYNQSFERTVEKLNSNLLLFILRKEGFKWFLNILKENNKIEEFDIPYEFSSICGVCGSLFNSAEKINYFYPYMEKYYNENFKV
epimerization activity on the peptide substrate (HPLC, LC-MS): The C223A mutation did not either prevent the epimerization activity

B2: YydG C22A mutant (protein)
chain: MYNKTVSINLDSRCNASCDHCAFSSSPTSTTRMEKEYIRELVTEFAKNKTIQVISFTGGEVFLDYKFLKELMEIIKPYEKQITLISNGFWGLSKKKVQEYFHDMNSLNVIALTISYDEYHAPFVKSSSIKNILEHSRKYPDIDISLNMAVTKDKMSNHILEELGDSILGVKITKFPMISVGAAKTRIKQENIHKFYSLEDEDSLHCPGYDIVYHHDGEIYPCCSPAIFETKITLREEYNQSFERTVEKLNSNLLLFILRKEGFKWFLNILKENNKIEEFDIPYEFSSICGVCGSLFNSAEKINYFYPYMEKYYNENFKV
enzyme activity on the peptide substrate (HPLC): the C22A mutation did not affect the activity of the enzyme and the three epimerized peptides were produced

B3: YydG C222A mutant (protein)
chain: MYNKTVSINLDSRCNASCDHCCFSSSPTSTTRMEKEYIRELVTEFAKNKTIQVISFTGGEVFLDYKFLKELMEIIKPYEKQITLISNGFWGLSKKKVQEYFHDMNSLNVIALTISYDEYHAPFVKSSSIKNILEHSRKYPDIDISLNMAVTKDKMSNHILEELGDSILGVKITKFPMISVGAAKTRIKQENIHKFYSLEDEDSLHCPGYDIVYHHDGEIYPACSPAIFETKITLREEYNQSFERTVEKLNSNLLLFILRKEGFKWFLNILKENNKIEEFDIPYEFSSICGVCGSLFNSAEKINYFYPYMEKYYNENFKV
enzyme activity on the peptide substrate (HPLC): The C222A mutant was also totally impaired for enzyme activity

B4: YydG A3 mutant (AxxxAxxA) (protein)
chain: MYNKTVSINLDSRANASADHACFSSSPTSTTRMEKEYIRELVTEFAKNKTIQVISFTGGEVFLDYKFLKELMEIIKPYEKQITLISNGFWGLSKKKVQEYFHDMNSLNVIALTISYDEYHAPFVKSSSIKNILEHSRKYPDIDISLNMAVTKDKMSNHILEELGDSILGVKITKFPMISVGAAKTRIKQENIHKFYSLEDEDSLHCPGYDIVYHHDGEIYPCCSPAIFETKITLREEYNQSFERTVEKLNSNLLLFILRKEGFKWFLNILKENNKIEEFDIPYEFSSICGVCGSLFNSAEKINYFYPYMEKYYNENFKV
conversion of the peptide substrate and SAM cleavage (HPLC): the A3 mutant was unable to convert the peptide substrate and to cleave SAM

B5: YydG, radical SAM epimerase of Bacillus subtilis (wild type) (protein)
chain: MYNKTVSINLDSRCNASCDHCCFSSSPTSTTRMEKEYIRELVTEFAKNKTIQVISFTGGEVFLDYKFLKELMEIIKPYEKQITLISNGFWGLSKKKVQEYFHDMNSLNVIALTISYDEYHAPFVKSSSIKNILEHSRKYPDIDISLNMAVTKDKMSNHILEELGDSILGVKITKFPMISVGAAKTRIKQENIHKFYSLEDEDSLHCPGYDIVYHHDGEIYPCCSPAIFETKITLREEYNQSFERTVEKLNSNLLLFILRKEGFKWFLNILKENNKIEEFDIPYEFSSICGVCGSLFNSAEKINYFYPYMEKYYNENFKV
Peptide 3*/Peptide 3 ratio relative to Peptide 2*/Peptide 2 ratio (tryptic peptide mapping): the Peptide 3*/Peptide 3 ratio was 5 times larger than the Peptide 2*/Peptide 2 ratio
epimerization of Ile residues: up to ˜35% of the Ile
epimerization of Val residues: ˜10% of Val residues
formation of epimerized peptide derivatives (HPLC): YydF18-49 proved to be a better substrate
moles of 5'-dA produced per mole of modified product: YydG produced one mole of 5′-dA per mole of modified product
